Values joined by “and” are separate entries in the source; they are usually repeats but may differ in a detail not shown here. Identical values can stand only once.
Assays:
DnaA [1] = biological target: T1, DnaA (Escherichia coli, UniProt P03004 1-467); assay: EMSA; ADP; monomer to trimer complexes at suboptimal DnaA; EMSA: 20 mM HEPES-KOH pH 7.6, 80 mM KCl, 1 mM EDTA, 4 mM DTT, 5 mM Mg acetate, 0.1 mg/ml BSA, 10% glycerol, 3 uM ATP or ADP, lambda-DNA competitor, 35 nM DNA, 30 C 5 min; pull-down in same buffer with 400 nM FBS1 competitor, preincubations on ice; conditions: protein: recombinant; blunt
T1 sequence: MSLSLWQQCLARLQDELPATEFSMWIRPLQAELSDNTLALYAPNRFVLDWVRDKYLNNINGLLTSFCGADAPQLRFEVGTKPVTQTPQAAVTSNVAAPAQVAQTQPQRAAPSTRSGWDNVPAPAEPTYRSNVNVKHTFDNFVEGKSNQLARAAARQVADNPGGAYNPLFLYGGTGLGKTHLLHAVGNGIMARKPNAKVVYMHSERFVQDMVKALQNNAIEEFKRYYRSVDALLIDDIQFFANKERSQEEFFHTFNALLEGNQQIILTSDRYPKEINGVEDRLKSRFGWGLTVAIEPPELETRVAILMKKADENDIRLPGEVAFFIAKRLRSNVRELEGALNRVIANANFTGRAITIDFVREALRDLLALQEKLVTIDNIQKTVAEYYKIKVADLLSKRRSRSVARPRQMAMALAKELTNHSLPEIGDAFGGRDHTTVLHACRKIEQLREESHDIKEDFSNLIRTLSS

DnaA;Fis = DnaA;Fis (Escherichia coli;Escherichia coli, UniProt P03004;P0A6R3 1-467;1-98, |); assay: EMSA; ADP; DnaA and Fis bind independently; EMSA: 20 mM HEPES-KOH pH 7.6, 80 mM KCl, 1 mM EDTA, 4 mM DTT, 5 mM Mg acetate, 0.1 mg/ml BSA, 10% glycerol, 3 uM ATP or ADP, lambda-DNA competitor, 35 nM DNA, 30 C 5 min; pull-down in same buffer with 400 nM FBS1 competitor, preincubations on ice; conditions: protein: recombinant;recombinant; tags: ;; copies: 1;2; blunt
Fis = Fis (Escherichia coli, UniProt P0A6R3 1-98); assay: EMSA; C1 at 100-200 nM Fis, C2 at >=360 nM; EMSA: 20 mM HEPES-KOH pH 7.6, 80 mM KCl, 1 mM EDTA, 4 mM DTT, 5 mM Mg acetate, 0.1 mg/ml BSA, 10% glycerol, 3 uM ATP or ADP, lambda-DNA competitor, 35 nM DNA, 30 C 5 min; pull-down in same buffer with 400 nM FBS1 competitor, preincubations on ice; conditions: protein: recombinant; chain copies: 2; blunt
DnaA [2] = biological target: T1, DnaA; assay: EMSA; ATP; oligomers, trimer C3 a major form at >=480 nM DnaA; EMSA: 20 mM HEPES-KOH pH 7.6, 80 mM KCl, 1 mM EDTA, 4 mM DTT, 5 mM Mg acetate, 0.1 mg/ml BSA, 10% glycerol, 3 uM ATP or ADP, lambda-DNA competitor, 35 nM DNA, 30 C 5 min; pull-down in same buffer with 400 nM FBS1 competitor, preincubations on ice; conditions: protein: recombinant; blunt
DnaA [3] = biological target: T1, DnaA; assay: EMSA; ATP; binding inhibited completely; EMSA: 20 mM HEPES-KOH pH 7.6, 80 mM KCl, 1 mM EDTA, 4 mM DTT, 5 mM Mg acetate, 0.1 mg/ml BSA, 10% glycerol, 3 uM ATP or ADP, lambda-DNA competitor, 35 nM DNA, 30 C 5 min; pull-down in same buffer with 400 nM FBS1 competitor, preincubations on ice; conditions: protein: recombinant; blunt
DnaA [4] = biological target: T1, DnaA; assay: EMSA; ATP; trimer formation not considerably inhibited; EMSA: 20 mM HEPES-KOH pH 7.6, 80 mM KCl, 1 mM EDTA, 4 mM DTT, 5 mM Mg acetate, 0.1 mg/ml BSA, 10% glycerol, 3 uM ATP or ADP, lambda-DNA competitor, 35 nM DNA, 30 C 5 min; pull-down in same buffer with 400 nM FBS1 competitor, preincubations on ice; conditions: protein: recombinant; blunt
[5] = biological target: the molecule itself; assay: native gel or EMSA; DnaA preincubated with 3 uM ATP, then 30°C for 5 min in buffer G (20 mM HEPES–KOH pH 7.6, 80 mM KCl, 1 mM EDTA, 4 mM DTT, 5 mM magnesium acetate, 0.1 mg/ml BSA, 10% glycerol) with 35 nM 52-bp DARS2 FBS2–5 DNA and competitor λ-DNA; 7% polyacrylamide gel; oligomers counted as DnaA molecules on the DNA fragment (C1–C4)

Fis, sequence (P0A6R3 whole entry): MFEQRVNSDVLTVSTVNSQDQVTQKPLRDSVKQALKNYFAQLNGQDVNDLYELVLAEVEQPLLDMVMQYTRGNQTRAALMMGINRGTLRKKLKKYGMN
DnaA;Fis, sequence (P0A6R3 whole entry, one chain of several): as the sequence (P0A6R3 whole entry) above

B1: oriC R5MI2 R14 (dsDNA)
DNA 1: TCATTACCTGTGGATAACCTGTGGATAACCTGTGGATAACCTGTGGATAAAATGA
DNA 2: TCATTTTATCCACAGGTTATCCACAGGTTATCCACAGGTTATCCACAGGTAATGA
binding result (DnaA [1]): binds

B2: FBS2-5 WT (dsDNA)
DNA 1: GGGTTGGCGAAAGATCAACCAATGCCGTATTTATCCACAGAATGTGCCACTA
DNA 2: TAGTGGCACATTCTGTGGATAAATACGGCATTGGTTGATCTTTCGCCAACCC
binding result (DnaA;Fis): binds | binding result (Fis): binds | binding result (DnaA [2]): binds

B3: FBS2-5 subDnaA box V (dsDNA)
DNA 1: GGGTTGGCGAAAGATCAACCAATGCCGTATACAGGCACTGAATGTGCCACTA
DNA 2: TAGTGGCACATTCAGTGCCTGTATACGGCATTGGTTGATCTTTCGCCAACCC
binding result (DnaA [3]): no binding

B4: FBS2-5 subDnaA box V-c (dsDNA)
DNA 1: GGGTTGGCGGGGGGCCGACCAATGCCGTATTTATCCACAGAATGTGCCACTA
DNA 2: TAGTGGCACATTCTGTGGATAAATACGGCATTGGTCGGCCCCCCGCCAACCC
binding result (DnaA [4]): binds

B5: DnaA (replication initiator protein of Escherichia coli) (natural protein, UniProt P03004 1-467, looked up)
chain: MSLSLWQQCLARLQDELPATEFSMWIRPLQAELSDNTLALYAPNRFVLDWVRDKYLNNINGLLTSFCGADAPQLRFEVGTKPVTQTPQAAVTSNVAAPAQVAQTQPQRAAPSTRSGWDNVPAPAEPTYRSNVNVKHTFDNFVEGKSNQLARAAARQVADNPGGAYNPLFLYGGTGLGKTHLLHAVGNGIMARKPNAKVVYMHSERFVQDMVKALQNNAIEEFKRYYRSVDALLIDDIQFFANKERSQEEFFHTFNALLEGNQQIILTSDRYPKEINGVEDRLKSRFGWGLTVAIEPPELETRVAILMKKADENDIRLPGEVAFFIAKRLRSNVRELEGALNRVIANANFTGRAITIDFVREALRDLLALQEKLVTIDNIQKTVAEYYKIKVADLLSKRRSRSVARPRQMAMALAKELTNHSLPEIGDAFGGRDHTTVLHACRKIEQLREESHDIKEDFSNLIRTLSS
notes: DnaA, chromosomal replication initiator protein, Escherichia coli; four domains, Arg finger Arg285 in domain III; Preincubated with 3 uM ATP (ATP–DnaA) or ADP (ADP–DnaA) before the EMSA; The nucleotide state is told by the assay, not by a separate molecule; also called ATP–DnaA; ADP–DnaA; source: purified protein
stoichiometry N [5]: 3 and 4

From paper PMC8682772, “Negative feedback for DARS2–Fis complex by ATP–DnaA supports the cell cycle-coordinated regulation for chromosome replication” (Nucleic Acids Research, 2021)
